From US20240100162A1 (published 2024)

T1: MAGE-B2 peptide on HLA-A*02:01 (human)
T1 peptide: GVYDGEEHSV

B1: TCR6 (TCR, V domains shown)
Valpha: AQTVTQSQPEMSVQEAETVTLSCTYDTSENNYYLFWYKQPPSRQMILVIRQEAYKQQNATENRFSVNFQKAAKSFSLKISDSQLGDTAMYFCAFFNAGKSTFGDGTTLTVKP
Vbeta: EAGVAQSPRYKIIEKRQSVAFWCNPISGHATLYWYQQILGQGPKLLIQFQNNGVVDDSQLPKDRFSAERLKGVDSTLKIQPAKLEDSAVYLCASTVGGGPYGYTFGSGTRLTVV
B2: TCR7 (TCR, V domains shown)
Valpha: GQNIDQPTEMTATEGAIVQINCTYQTSGFNGLFWYQQHAGEAPTFLSYNVLDGLEEKGRFSSFLSRSKGYSYLLLKELQMKDSASYLCAVRRLGGYQKVTFGTGTKLQVIP
Vbeta: GAGVSQSPSNKVTEKGKDVELRCDPISGHTALYWYRQRLGQGLEFLIYFQGNSAPDKSGLPSDRFSAERTGESVSTLTIQRTQQEDSAVYLCASSLVTGSSYNEQFFGPGTRLTVL
B3: TCR8 (TCR, V domains shown)
Valpha: AQKITQTQPGMFVQEKEAVTLDCTYDTSDQSYGLFWYKQPSSGEMIFLIYQGSYDEQNATEGRYSLNFQKARKSANLVISASQLGDSAMYFCAMRGPTSYGKLTFGQGTILTVHP
Vbeta: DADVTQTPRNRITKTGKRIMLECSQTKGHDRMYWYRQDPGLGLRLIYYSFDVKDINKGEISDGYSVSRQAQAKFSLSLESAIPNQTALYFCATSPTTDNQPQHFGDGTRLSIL
B4: TCR10 (TCR, V domains shown)
Valpha: AQSVAQPEDQVNVAEGNPLTVKCTYSVSGNPYLFWYVQYPNRGLQFLLKYITGDNLVKGSYGFEAEFNKSQTSFHLKKPSALVSDSALYFCAVRDNARLMFGDGTQLVVKP
Vbeta: SAVISQKPSRDICQRGTSLTIQCQVDSQVTMMFWYRQQPGQSLTLIATANQGSEATYESGFVIDKFPISRPNLTFSTLTVSNMSPEDSSIYLCSVGPSGHTGYTFGSGTRLTVV
B5: TCR5 (TCR, V domains shown)
Valpha: KNEVEQSPQNLTAQEGEFITINCSYSVGISALHWLQQHPGGGIVSLFMLSSGKKKHGRLIATINIQEKHSSLHITASHPRDSAVYICAPGGNQFYFGTGTSLTVIP
Vbeta: DAGITQSPRYKITETGRQVTLMCHQTWSHSYMFWYRQDLGHGLRLIYYSAAADITDKGEVPDGYVVSRSKTENFPLTLESATRSQTSVYFCASSGSNQPQHFGDGTRLSIL
B6: TCR11 (TCR, V domains shown)
Valpha: GEDVEQSLFLSVREGDSSVINCTYTDSSSTYLYWYKQEPGAGLQLLTYIFSNMDMKQDQRLTVLLNKKDKHLSLRIADTQTGDSAIYFCAEKSITSYDKVIFGPGTSLSVIP
Vbeta: DVKVTQSSRYLVKRTGEKVFLECVQDMDHENMFWYRQDPGLGLRLIYFSYDVKMKEKGDIPEGYSVSREKKERFSLILESASTNQTSMYLCASTRRGTYGYTFGSGTRLTVV

Molecular target: T1, MAGE-B2 peptide on HLA-A*02:01
Assay: multimer staining

| binding result | Binder |
| --- | --- |
| recognises | B1 |
| recognises | B2 |
| recognises | B3 |
| recognises | B4 |
| recognises | B5 |
| recognises | B6 |
